According to patent US20040018204A1:

These binders were tested against mouse B6 MHC class I antigens (H-2b: D^b or K^b) on the surface of RMA-S cells (mouse) (assay: binding of 9mer peptides within p117-139 to mouse B6 (H-2b) class I antigens; RMA-S assay as for Table XLVII).

Binding Affinity to Mouse MHC Class I | Binder
1% | QARMFPNAP [WT1 peptide P124-132 (…)]
1% | SSGQARMFP [WT1 peptide P121-129 (…)]
1% | APYLPSCLE [WT1 peptide P131-139 (…)]
1% | PNAPYLPSC [WT1 peptide P129-137 (…)]
79% | NAPYLPSCL [WT1 peptide P130-138 (…)]
1% | ASSGQARMF [WT1 peptide P120-128 (…)]
1% | ARMFPNAPY [WT1 peptide P125-133 (…)]
2% | SQASSGQAR [WT1 peptide P118-126 (…)]
2% | MFPNAPYLP [WT1 peptide P127-135 (…)]
2% | QASSGQARM [WT1 peptide P119-127 (…)]
2% | PSQASSGQA [WT1 peptide P117-125 (…)]
1% | FPNAPYLPS [WT1 peptide P128-136 (…)]

What follows are binders tested against mouse B6 MHC class I antigens (H-2b: D^b or K^b) on the surface of RMA-S cells (mouse) (assay: RMA-S class I stabilisation, peptide 25 ug/ml, flow cytometry with FITC anti-D^b or anti-K^b, MFI against medium alone).

Binding Affinity to Mouse MHC Class I (% increase of class I on RMA-S cells) | Binder
2.2% | ALLPAVPSL [WT1 peptide p10-18 human (…)]
52% | SCLESQPAI [WT1 peptide p136-144 human (…)]
1.2% | QMTSQLECM [WT1 peptide p228-236 (…)]
1% | NQMNLGATL [WT1 peptide p239-247 (…)]
1.2% | GCNKRYFKL [WT1 peptide p329-337 (…)]
5.8% | NLYQMTSQL [WT1 peptide p225-233 (…)]
0.8% | YSSDNLYQM [WT1 peptide p221-229 (…)]
33.6% | CMTWNQMNL [WT1 peptide p235-243 (…)]
